Kd data for eight sequences are collected here from patent US20220251562.

Series [1] relates to CD3 complex on Jurkat cells (Homo sapiens). The experiment in a line: flow. As to conditions: apparent.
For series [2], the target named is T1, CD3 epsilon/delta heterodimer (Mus musculus) (UniProt P22646+P04235).
T1 sequence 1: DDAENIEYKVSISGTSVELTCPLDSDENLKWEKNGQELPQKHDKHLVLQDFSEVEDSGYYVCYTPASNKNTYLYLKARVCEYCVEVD
T1 sequence 2: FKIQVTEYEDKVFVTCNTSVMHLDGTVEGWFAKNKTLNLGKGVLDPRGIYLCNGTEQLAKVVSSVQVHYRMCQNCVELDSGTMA
The experiment in a line: SPR. As to conditions: steady state.

Series [3] has as its target CD3 epsilon/gamma heterodimer (Homo sapiens) (UniProt P07766+P09693). The experiment in a line: SPR. As to conditions: steady state.
In series [4] the target is CD3 epsilon/delta heterodimer (Homo sapiens) (UniProt P07766+P04234). The experiment in a line: SPR. As to conditions: kinetic.
Series [5] has as its target CD3 epsilon/delta heterodimer (Macaca fascicularis) (UniProt Q95LI5+Q95LI8). The experiment in a line: SPR. To be noted: steady state.

CD3 epsilon/gamma heterodimer (Homo sapiens), sequence (P07766 23-126, chain 1 of 2): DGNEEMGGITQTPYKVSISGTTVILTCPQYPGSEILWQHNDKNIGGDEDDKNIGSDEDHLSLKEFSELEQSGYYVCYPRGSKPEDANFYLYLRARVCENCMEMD
CD3 epsilon/gamma heterodimer (Homo sapiens), sequence (P09693 23-116, chain 2 of 2): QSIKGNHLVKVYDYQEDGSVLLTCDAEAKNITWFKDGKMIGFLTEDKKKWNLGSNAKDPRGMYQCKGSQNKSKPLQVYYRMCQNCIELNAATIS
CD3 epsilon/delta heterodimer (Homo sapiens), sequence (P07766 23-126, stated change not applied, chain 1 of 2): as the sequence (P07766 23-126, chain 1 of 2) above
CD3 epsilon/delta heterodimer (Homo sapiens), sequence (P04234 22-105, stated change not applied, chain 2 of 2): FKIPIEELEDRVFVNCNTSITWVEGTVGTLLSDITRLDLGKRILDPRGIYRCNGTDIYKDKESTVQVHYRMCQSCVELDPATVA
CD3 epsilon/delta heterodimer (Macaca fascicularis), sequence (Q95LI5 22-117, stated change not applied, chain 1 of 2): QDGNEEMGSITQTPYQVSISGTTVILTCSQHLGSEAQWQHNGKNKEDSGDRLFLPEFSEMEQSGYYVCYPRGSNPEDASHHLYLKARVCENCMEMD
CD3 epsilon/delta heterodimer (Macaca fascicularis), sequence (Q95LI8 22-105, stated change not applied, chain 2 of 2): as the sequence (P04234 22-105, stated change not applied, chain 2 of 2) above, with I5V, N15K, I20V, S32T, D33N, I34N, T64A, S74N, V83L counted along it

Consider GGGNTTGGCNNNGGGNCTGGC [CELTIC_core], for which the Kd in series [1] (negligible signal on Ramos) was greater than 50 nM; in series [2], 591 µM; in series [3] (kinetic 845 pM (Table 8)), 427 nM; in series [4], 1 nM; in series [5] it was 1210 nM.
On to GGGTTTGGCACCGGGCTGGC [CELTIC_core_12], for which the Kd is 98 nM in series [3] (_ is abasic C3 spacer at position 16, kinetic 1.15 pM (Table 8)) and 1.5 nM in series [4] (_ is abasic C3 spacer at position 16).
Regarding GGGTTTGGCACGGGCCTGGC [CELTIC_core_24], the Kd in series [3] (_ is abasic C3 spacer at position 11, 5'-HEG, kinetic 67 pM (Table 8)) was determined as 218 nM; in series [4] (_ is abasic C3 spacer at position 11, 5'-HEG), 0.041 nM.
In the case of GGGTTTGGCACGGGCCTGGC [CELTIC_core_24t], the Kd in series [3] (_ is abasic C3 spacer at position 11, 5'-HEG, 3'-3' dT, kinetic 238 pM (Table 8)) was determined as 233 nM; in series [4] (_ is abasic C3 spacer at position 11, 5'-HEG, 3'-3' dT) it was 0.006 nM.
In the case of “GGGTTTGGCACGGGCTGGC [CELTIC_core_42 5'-tetrazine]”, in series [1] (_ is abasic C3 spacer (positions 11 and 16), HEG, 5'-tetrazine-PEG5, specificity retained vs Ramos), the Kd was less than 25 nM.
For GGGTTTGGCACGGGCTGGC [CELTIC_core_42], the Kd is less than 50 nM in series [1] (_ is abasic C3 spacer (positions 11 and 16), 5'-HEG, biotin at 5' or 3' end equivalent); 194 nM in series [3] (_ is abasic C3 spacer at positions 11 and 16, 5'-HEG, kinetic 277 pM (Table 8)); 0.772 nM in series [4] (_ is abasic C3 spacer at positions 11 and 16, 5'-HEG).
Turning to GGGTTTGGCACGGGCTGGC [CELTIC_core_42t], the Kd worked out at 176 nM in series [3] (_ is abasic C3 spacer at positions 11 and 16, 5'-HEG, 3'-3' dT, kinetic 43 pM (Table 8)); 0.275 nM in series [4] (_ is abasic C3 spacer at positions 11 and 16, 5'-HEG, 3'-3' dT).
With GGGTTTGGCATCGGGCTGGC [CELTIC_core_29], the Kd in series [3] (_ is abasic C3 spacer at position 16, 5'-HEG, kinetic 5.4 pM (Table 8)) came to 205 nM; in series [4] (_ is abasic C3 spacer at position 16, 5'-HEG), 0.014 nM.
